Measured values published in patent US9029508 (dated 2015).

B1: DVD523 DLL4 arm (antibody, V domains shown)
VH: EVQLQQSGPELEKPGASVKISCKASGYSFTGYNMNWVKQSNGKSLEWIGNIDPYFGGTNYNQKFKGKATLTVDKSSSTAYMQLKSLTSEDSAVYYCARNYDYDGGCFDYWGQGTTLTVSS
VL: QAVVTQESALTTSPGETVTLTCRSSTGAVTTSNYANWVQEKPDHLFTGLIGGTNNRAPGVPARFSGSLIGDKAALTITGAQTEDEAIYFCALWYSNHWVFGGGTKLTVLG
modifications: DVD-Ig outer
B2: DVD511 DLL4 arm (antibody, V domains shown)
VH: B1 VH
VL: B1 VL
modifications: DVD-Ig outer
B3: DVD465 DLL4 arm (antibody)
chain 1: EVQLVESGGGLVQPGGSLRLSCAASGFTFTDNWISWVRQAPGKGLEWVGYISPNSGFTYYADSVKGRFTISADTSKNTAYLQMNSLRAEDTAVYYCARDNFGGYFDYWGQGTLVTVSS
chain 2: DIQMTQSPSSLSASVGDRVTITCRASQDVSTAVAWYQQKPGKAPKLLIYSASFLYSGVPSRFSGSGSGTDFTLTISSLQPEDFATTYYCQQSYTGTVTFGQGTKVEIKR
modifications: DVD-Ig outer
B4: DVD525 DLL4 arm (antibody, V domains shown)
VH: B1 VH
VL: B1 VL
modifications: DVD-Ig outer
B5: DVD493 DLL4 arm (antibody, V domains shown)
VH: EVQLQQSGPELVKPGASVKMSCKASGYTFTSYVINWVKQKPGQGLEWIGLINPYNDGTKYNEKFKVKATLTSDKSSSTAYMELSSLTSEDSAVYYCASYYYGSRYYFDYWGQGTTLTVSS
VL: DIQMTQSSSYLSVSLGGRVTITCKASDHINNWLAWYQQKPGNAPRLLISGATSLETGVPSRFSGSGSGKDYTLSITSLQTEDVATYYCQQYWSIPLTFGAGTKLELKR
modifications: DVD-Ig outer
B6: DVD505 DLL4 arm (antibody, V domains shown)
VH: B5 VH
VL: B5 VL
modifications: DVD-Ig outer
B7: DVD462 DLL4 arm (antibody, V domains shown)
VH: QVQLVQSGAEVKKPGASVKISCKASGYSFTAYYIHWVKQAPGQGLEWIGYISSYNGATNYNQKFKGRVTFTTDTSTSTAYMELRSLRSDDTAVYYCARDYDYDVGMDYWGQGTLVTVSS
VL: DIVMTQSPDSLAVSLGERATISCRASESVDNYGISFMKWFQQKPGQPPKLLIYAASNQGSGVPDRFSGSGSGTDFTLTISSLQAEDVAVYYCQQSKEVPWTFGGGTKVEIKR
modifications: DVD-Ig inner
B8: DVD532 DLL4 arm (antibody, V domains shown)
VH: B1 VH
VL: B1 VL
modifications: DVD-Ig inner
B9: DVD441 DLL4 arm (antibody, V domains shown)
VH: B7 VH
VL: B7 VL
modifications: DVD-Ig outer
B10: DVD526 DLL4 arm (antibody, V domains shown)
VH: B1 VH
VL: B1 VL
modifications: DVD-Ig inner
B11: DVD469 DLL4 arm (antibody)
chain 1: B3 chain 1
chain 2: B3 chain 2
modifications: DVD-Ig outer
B12: DVD510 DLL4 arm (antibody, V domains shown)
VH: B5 VH
VL: B5 VL
modifications: DVD-Ig inner
B13: DVD466 DLL4 arm (antibody)
chain 1: B3 chain 1
chain 2: B3 chain 2
modifications: DVD-Ig inner
B14: DVD483 DLL4 arm (antibody)
chain 1: B3 chain 1
chain 2: B3 chain 2
modifications: DVD-Ig outer
B15: DVD498 DLL4 arm (antibody, V domains shown)
VH: B5 VH
VL: B5 VL
modifications: DVD-Ig inner
B16: DVD442 DLL4 arm (antibody, V domains shown)
VH: B7 VH
VL: B7 VL
modifications: DVD-Ig inner
B17: DVD504 DLL4 arm (antibody, V domains shown)
VH: B5 VH
VL: B5 VL
modifications: DVD-Ig inner
B18: DVD533 DLL4 arm (antibody, V domains shown)
VH: B1 VH
VL: B1 VL
modifications: DVD-Ig outer
B19: DVD454 DLL4 arm (antibody, V domains shown)
VH: B7 VH
VL: B7 VL
modifications: DVD-Ig inner
B20: DVD471 DLL4 arm (antibody)
chain 1: B3 chain 1
chain 2: B3 chain 2
modifications: DVD-Ig outer
B21: DVD491 DLL4 arm (antibody, V domains shown)
VH: B5 VH
VL: B5 VL
modifications: DVD-Ig outer
B22: DVD480 DLL4 arm (antibody)
chain 1: B3 chain 1
chain 2: B3 chain 2
modifications: DVD-Ig inner
B23: DVD456 DLL4 arm (antibody, V domains shown)
VH: B7 VH
VL: B7 VL
modifications: DVD-Ig inner
B24: DVD479 DLL4 arm (antibody)
chain 1: B3 chain 1
chain 2: B3 chain 2
modifications: DVD-Ig outer

What follows are binders tested against DLL4 (human, UniProt Q9NR61) (assay: ELISA).
Chain of DLL4 (Q9NR61 27-524): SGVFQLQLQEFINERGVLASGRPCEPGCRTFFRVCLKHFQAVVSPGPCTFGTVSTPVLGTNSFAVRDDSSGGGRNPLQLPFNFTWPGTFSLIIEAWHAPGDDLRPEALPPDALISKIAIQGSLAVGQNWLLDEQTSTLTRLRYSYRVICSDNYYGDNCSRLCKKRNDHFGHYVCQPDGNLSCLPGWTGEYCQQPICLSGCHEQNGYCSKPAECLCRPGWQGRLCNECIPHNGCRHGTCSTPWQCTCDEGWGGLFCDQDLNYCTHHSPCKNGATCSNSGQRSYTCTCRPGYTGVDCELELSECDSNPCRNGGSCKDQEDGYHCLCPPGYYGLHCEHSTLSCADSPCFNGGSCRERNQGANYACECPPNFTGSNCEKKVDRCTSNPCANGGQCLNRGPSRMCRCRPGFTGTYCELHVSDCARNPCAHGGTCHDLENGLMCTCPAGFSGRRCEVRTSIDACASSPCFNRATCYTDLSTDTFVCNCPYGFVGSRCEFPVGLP

| Binder | EC50 |
| --- | --- |
| B1 | 0.09 nM |
| B2 | 0.1 nM |
| B3 | 0.57 nM |
| B4 | 1 nM |
| B5 | 0.06 nM |
| B6 | 0.09 nM |
| B7 | 7.99 nM |
| B8 | 1.43 nM |
| B9 | 0.04 nM |
| B10 | 1.57 nM |
| B11 | 2.78 nM |
| B12 | 0.42 nM |
| B13 | 19.8 nM |
| B14 | 0.63 nM |
| B15 | 0.45 nM |
| B16 | 10.6 nM |
| B17 | 0.53 nM |
| B18 | 0.25 nM |
| B19 | 1.01 nM |
| B20 | 0.89 nM |
| B21 | 0.39 nM |
| B22 | 0.6 nM |
| B23 | 2.48 nM |
| B24 | 1.69 nM |
